# Assay: soluble on expression in E. coli; label from the status in PepcDB or PDB records
row,Sequence,soluble on expression in E. coli
1,MLRQWWLRSVGSCSTVYRAHSGCSTSAAVKPKRAIPTDGLQLSDFIKESTKKQRQKAIIPSIEDTKEYLNPEDLQGNGRTVCYVTYGCQMNVSDMEIVRSIMTKYGFVESDKKENADIVLLMTCSIRDGAEKKVWNQLKLIRSNSVNKGQIVGVLGCMAERVRHDLLEKRNLVNIVAGPDSYRDLPRLVAVAAGGSNGINVQLSLDETYADVQPIRVDSASKTAFISIMRGCDNMCTYCVVPFTRGRERSRPIESIVEEVQRLRDQGYKQVTLLGQNVNSYRDMTSMDFSMAPSTSQEDRVPGFKTVYKPKSGGLTFTTLLEKVADAAPDIRFRFTSPHPKDFPMQLIELIASRPNLCKQLHLPAQSGDDETLERMERGYTRDLYLRLVDDIRHVLPSVSLTSDFIAGFCGETEQAHQNTLSLIRAVRYSFCFVFPYSMRGKTRAHHRLTDDVPEDVKARRHLDLTTVFREEALKLNQALIGSEQTVLLEGKSKRDASFSHGRIDGGVKAVFDNSKLCLEPGQYAKILITDANSQTLKAQLIGQSSI,not soluble
2,MAHHHHHHMVENKSKVKDISLAPFGKMQMEISENEMPGLMRIREEYGKDQPLKNAKITGCLHMTVECALLIETLQKLGAQIRWCSCNIYSTADYAAAAVSTLENVTVFAWKNETLEEYWWCVESALTWGDGDDNGPDMIVDDGGDATLLVHKGVEYEKLYEEKNILPDPEKAKNEEERCFLTLLKNSILKNPKKWTNIAKKIIGVSEETTTGVLRLKKMDKQNELLFTAINVNDAVTKQKYDNVYGCRHSLPDGLMRATDFLISGKIVVICGYGDVGKGCASSMKGLGARVYITEIDPICAIQAVMEGFNVVTLDEIVDKGDFFITCTGNVDVIKLEHLLKMKNNAVVGNIGHFDDEIQVNELFNYKGIHIENVKPQVDRITLPNGNKIIVLARGRLLNLGCATGHPAFVMSFSFCNQTFAQLDLWQNKDTNKYENKVYLLPKHLDEKVALYHLKKLNASLTELDDNQCQFLGVNKSGPFKSNEYRY,soluble
3,MAVNVYSTSVTSENLSRHDMLAWVNDSLHLNYTKIEQLCSGAAYCQFMDMLFPGCVHLRKVKFQAKLEHEYIHNFKVLQAAFKKMGVDKIIPVEKLVKGKFQDNFEFIQWFKKFFDANYDGKDYNPLLARQGQDVAPPPNPGDQIF,soluble
4,MNIFEAIENRHSVRDFLERKMPERVKDDIENLLVKFITKKLDWKINLSSFPSYIYAKAEKHFDELVEYGFQGEQIVLFLTAQGFGTCWMARSPHPDVPYIIVFGYPRTRNFTRKRRPITSFLENDLEELPPEIVKIVEMTILAPSALNRQPWKIKYTGGELCISSERPVDLGIALSHAYLTAREIFKREPVIQKRGEDTYCLILNP,not soluble
5,MGSDKIHHHHHHMKEKIVLAPQKGPQEMFLATSADICIYGGAAGGGKTFGLLLEPLRYMNNPDYNATIFRRDYTQVTSPGGLWDSSRKIYRYVKGSRPLKTPKLHWTFKRGASVNFAHLGRDEDCDDWQGSQLTMIGFDELTHFSEYQFFYMLSRNRTDSGVKPYVRATCNPDADSWVAEFISWWINQETGYPIPERSGVIRWMVRLNEVVTWFDSREEAVQGAIENGVKPEQAETMPKSVTFIASTLHDNKILMKNDPGYLANLQAMTLVQRERLLHGNWKIKAAAGLMFKRVKVNMLEEIPPDVIKWARGWDLAATSEDEKGDPAYTAGVLIGKRRNGRYIVADVINRRLSSSDVREIIKQTCIADRAKYGRVATRLPQDPGQAGKDQAQSFMKLLAGFTVKCIQESGDKVTRAEPFSAQWLGLEGMDKGNVDVLIAPWNEEYFNECENFPQSKFKDMVDASSSAFTELESGATYSAPPKDSQLGKSSYWNK,not soluble
6,MSNSQAGPGASVRRVLAVIPARGGSKGVPAKNLAPVGGVPLVVRAVRECLAARLVTDVVVSTDDQAIAAAAREAGAEVVLRPAAIAGDTATSEAAVLHAMDAHEALHGAAVDVVLLVQCTSPFLVREDVDGVAGAVVEDGADTAVTVAPFHGFVWRDGADEPGGADGGHGVNHDKAYRPRRQDRPQDLLETGAAYAMAAPGFRKHRHRFFGRTDLVRTDPARVLEIDDPHDLARARALAPHFDTARPGALPTAADIDAVVLDFDGTQTDDRVLIDTDGREFVSVHRGDGLGIAALRRSGLTMLILSTEVNPVVAARARKLKLPVLHGIDRKDLALKQWCEEQGIAPERVLYVGNDVNDLPCFALVGWPVAVASAHDAVRGAARAVTTVPGGEGAVREIAAWLLGPSLDALGPASETTPTLTQSKLEHHHHHH,soluble
7,MGSDKIHHHHHHMKKKIVVLLPMKANSTRVKGKNFRDFCGKPLFRWILDSLLAVEDIDQIVINTDARDILAENGLVGTDRILIRDRKKEICGDEVSMNRVLADDVENVEADIYLMTHTTNPLLSSNTIKQAINQYNEELASASADSLFTVNKIQTRFYTAKCEPINHDPDNLIPTQDLEPWFEENSNLYLFNRESFAKTNARIGAKPSMMVSPAMECSDIDTPDDWDQAVVMTHYMLEKGFVKL,not soluble
8,MSLDTSRRRRLARRSIAASFRLFLTVAKGLGVLDYRIDGAEILHQERGCLVVANHPTLIDYVLLASVMPETDCLVKSALLKNPFLGGVVRATDYLINSEAETLLPRCQQRLAQGDTILIFPEGTRTKPGEKMTLQRGAANIAVRCASDLRIVTIGCSEHLLDKQSKWYDVPPDRPFFTVAVHGRVEINKFYDATSQEPALAARQLNRHLLLQLQQGCLPLSGINNASALSGNEGHHHHHH,not soluble
9,MGSDKIHHHHHHMDILQTANERMEQLAALMNKDIKQKVSADQKVKVGVDLGTSSIVFVVLDEHDVPLFGAFEFADAVRDGLVVNYRESVEVVTRLKERAEKCLGITLTHASGAIPPGTVGNNKKVVANVIESAGMEALYTIDEPTAAAAVLGLQDGAVVDVGGGTTGISVFENGEVIYTADEPTGGTHMTLVLAGYYGVPVEKAEQNKREQKDSSEHFSVMRPVVEKMAEITRVHLEKSPSEPLYIVGGASAYSQFKDTFESYLKTPVFQPNYPQYVTPLGIAMSSGSENL,not soluble
10,MAHHHHHHMGDKVEYGTSTVKSLGDTCRLVRALQGSTDPRLVSINSLLEGVVKSAQSLVKGTDSQKRFNMEFAEFCGVALMGLPDLEDAVDDLRVQENCANAAVNDQDDFDGISPAIFMREIIGYVVSRNTNVGAQYLEHIGRSAMAKFAGQESSEVTPKRLKSGMNDERHVQSVARKKQRTRPVAGKMGRAPTDDKSGVAATGRVFGVDGDEPKQRYKQSMPKGPPMLSRWVKPWTLLNQRVQGIILEHASNENTRRPPVCNYPPGKRSNITPFDICTAPSGPEMLNLWHARESMTSSSVGHCDPVGVAFDETALDHDSKGSEPSFFPSGDKKVCAFVSSELMANLVRYGVSSLEAPFKGAK,not soluble
11,MANTGSLVLLRHGESDWNALNLFTGWVDVGLTDKGQAEAVRSGELIAEHDLLPDVLYTSLLRRAITTAHLALDSADRLWIPVRRSWRLNERHYGALQGLDKAETKARYGEEQFMAWRRSYDTPPPPIERGSQFSQDADPRYADIGGGPLTECLADVVARFLPYFTDVIVGDLRVGKTVLIVAHGNSLRALVKHLDQMSDDEIVGLNIPTGIPLRYDLDSAMRPLVRGGTYLDPEAAAAGAAAVAGQGRGGVPRGAAALEHHHHHH,soluble
12,MGSDKIHHHHHHMNDPTFYRDGQGQPIQPDSAREAVAWLTQLMSDSVTEQDRREWQRWREASPDNEQAWQHIESVCANLGQLNARAAHQSLSTLNGMQRRSVLKALAILCLTGGAGMAGSRTDVWQSFTADYQTQVGEQRHAVLEDGTTLLLNTQTALNVAYGDDLRQLTLIRGEVMIETSQVEKAALYPRPFIVTTAQGKVQALGTRFSLRVQDEHTQVAVYDGAVRLHPQRNGQDVQVVKSGQTATFTTQRCGQIETEKAEPAWVKGQLLADNQRLVDFVDELSRYRSGVIRCQPEVESLRFSGVFPLSDTDNILAALAEALPVQVRYFSRYWVQIAAR,not soluble
13,MMKLNLFINANETESYIDIHAPKMNDHVQSIINAVNDLDKSHTLVGYIDKEIHIINVSDVITFQVINKNVTAITSNQKFKLKLRLYELEKQLPQHFIRISKSEIVNKYYIEKLLLEPNGLIRMYLKDAHYTYSSRRYLKSIKERLSI,not soluble
14,MVTNVEGDMNYCCKVDLKPWHFWNKKGYKSFDVEGNPVEVYWDFRSAKFTSSPEPSSDFYVALVSEEEVVLLVGDYKKKAFKRTKSRPALVEAALFYKKENVFGKKCFTTRAKFYDRKKEHEIIVESSTSGPKEPEMWISIDGIVLIQVKNLQWKFRGNQTVLVDKQPVQVFWDVYDWLFSMPGTGHGLFIFKPGTTEDSDMEGSGHGGGGGGESDTSTGSRYYSTKSSNPWPPEFCLFLHAYKLE,soluble
15,MAKQKDNYLDYVPKHNSLFECRENKKGHVEVKVHNKGIFNRIAQLIARKPRYSYIELDDFGTFVWHSIDGVRSIYDIGQLVKEHFGDKAEPLYERLCYFIKLLHKNQFIVYMNKINKQINK,not soluble
16,MRTLLLAGGLLVLSGCSLLMPTPDPNRAWVDLDTQPDADLAAVEVDDKSWDRTRYFEVDPGTRELTVRYQFTVDPTNIGPVDSPLWRDCQLNLKFKDFSAGQRYRLEAGHIGFRPWAKLYDQDNRELARGREGRCAKV,not soluble
17,MSLQARVAAPVVAKEREELVDRIEGETSAADELEKSVDELRDDVDARRREALEKSGDGDRSDLVGILSGAVEVHGPGVKLVVNDAKDVATGADGQPRGTSGFSDTGRVRDRDMQRVVNGLWESGAEAISVNGQRLTALSAIRAAGDAILVDNRPLVPPYTVLAVGDGERLSRGFQDSADGLYLHALEESYGIRTAISVADDLKLPAAPSVIVRTAQPITEKGTSEGHHHHHH,soluble
18,NEIKKILIMPTWRDWLNSTYAFDNSDYMKHYLSLINSPKLQALINEYDIEINFYPHYRSQMFFKSFLTDNKSDINYIELGDKTVQELLVEHDLLITDYSSVSFDFSYMKKPVIFYHFDVKKFFRKGILRSIKDTFIGDIAHTEKELISLIEDNIKNPKNMEYQNLSSIFDYTDHHNNQRVYHSILDLIQDNT,not soluble
19,MGSVNGAEALKALYALQEKDLEIDRLRAEAESPPEELVALQGQVEALEERLTNLLERRAELEREYNRHSLDIEDLSAKEKQAEEEQKRAQSAREQTQYENRIQQIKDRIRELLELSTPIMEAMENLEAEIAQVEEELAALRPRLQELLEANRARVAELEAAIAAKVEERTTMAAAIPAQILKEYEAIRRARRGTGVARMAAQGQVYRCEGCNVVLPTHVAQKVVRGQVVRCPSCGRLLWKGE,soluble
20,MCIAAWVWQAHPQHQLLLLLNRDEFHSRPTKAVGWWGEGSKKILGGRDVLGGGTWMGCTKDGRLAFLTNVLEPDAMPGARTRGDLPLRFLQSNKSPLEVATEVAKEADEYNGFNLVLADLTTNVMVYVSNRPKGQPATIQLVSPGLHVLSNARLDSPWQKAIRLGKNFREHLRKHGDDEVEAKDIVERLMTDTTKADKDRLPNTGCDPNWEHGLSSIFIEVQTDQGLYGTRSTAVLSVNYDGEASLYEKYLESGIWKDHTVHYQIE,soluble
21,MGHHHHHHSHMHDSANCELPLLTPCSKAVMSQALKATFSGFKKEQRRLGIPKNPWLWSEQQVCQWLLWATNEFSLVNVNLQRFGMNGQMLCNLGKERFLELAPDFVGDILWEHLEQMIKENQEKTE,not soluble
22,MEGVQEVEIDAPLSGWHPAEGEDASFSQSINYPASSVNMADDQNISAQIRGKIKNYAAAGKVQQGRLVVNGASMPQRIESDGSFARPYIFTEGSNSVQVISPDGQSRQKMQFYSTPGTGTIRARLRLVLSWDTDNTDLDLHVVTPDGEHAWYGNTVLKNSGALDMDVTTGYGPEIFAMPAPVHGRYQVYINYYGGRSETELTTAQLTLITDEGSVNEKQETFIVPMRNAGELTLVKSFDWLEHHHHHH,soluble
